Our source for the Kd values is publication PMC9437899.

The assay has as its target neonatal Fc receptor (FcRn) (UniProt P55899). The assay is described as follows: ELISA; pH 6.0; absorbance read with a plate reader; Kd defined as the concentration of protein that produces 50% of optimal binding response; who was immobilised is not given in the source. For orientation: An ELISA detects its analyte on a solid surface through an enzyme-linked reagent.

Sequence of neonatal Fc receptor (FcRn) (P55899 24-365): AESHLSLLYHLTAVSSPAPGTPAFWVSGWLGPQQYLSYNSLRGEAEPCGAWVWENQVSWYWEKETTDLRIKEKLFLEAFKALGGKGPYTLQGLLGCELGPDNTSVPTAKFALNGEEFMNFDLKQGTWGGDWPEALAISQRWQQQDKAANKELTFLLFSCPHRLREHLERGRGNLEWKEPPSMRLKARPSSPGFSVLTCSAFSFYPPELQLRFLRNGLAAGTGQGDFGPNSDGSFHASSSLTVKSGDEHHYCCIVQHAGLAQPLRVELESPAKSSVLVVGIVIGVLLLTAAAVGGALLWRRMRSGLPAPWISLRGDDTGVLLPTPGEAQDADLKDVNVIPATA

In the case of Fc-PepH3 conjugate (Fc fusion), the Kd – broadly, the equilibrium constant for the complex coming apart – is 95.4 nM.
